Test system: Escherichia coli TOP10
Test: shrunken log2 fold change of peptide-encoding DNA abundance (4.5 h post-induction vs induction); higher = less antimicrobial activity (less host growth inhibition)
Details: time post-induction: 4.5 h; library: site-saturation at positions 5, 18, 19, 20
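Further: peptides expressed intracellularly from a pBAD plasmid library in pooled LB shake-flask culture, induced with 0.3% L-arabinose, DNA abundance read by NGS, three biological replicates, DESeq2 with apeglm shrinkage.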

Sequence	shrunken log2 fold change
RRIRNRPPRLPRPRPRPIFTPRP	-0.424
RRIRPRPPRLPRPRPRPTVLPRP	-0.225
RRIRCRPPRLPRPRPRPDRFPRP	0.0616
RRIRQRPPRLPRPRPRPTQNPRP	0.627
RRIRRRPPRLPRPRPRPAGNPRP	-0.0218
RRIRHRPPRLPRPRPRPATFPRP	-0.662
RRIRIRPPRLPRPRPRPHMLPRP	-0.943
RRIRRRPPRLPRPRPRPAVWPRP	0.399
RRIRTRPPRLPRPRPRPDEAPRP	-0.0661
RRIRCRPPRLPRPRPRPEEEPRP	0.375
RRIRARPPRLPRPRPRPFDRPRP	0.0972
RRIRVRPPRLPRPRPRPKMAPRP	-0.222
RRIRKRPPRLPRPRPRPKFAPRP	0.764
RRIRTRPPRLPRPRPRPVWKPRP	-0.026
RRIRLRPPRLPRPRPRPMCDPRP	-0.481
RRIRTRPPRLPRPRPRPQHMPRP	-0.518
RRIRGRPPRLPRPRPRPDWEPRP	0.166
RRIRWRPPRLPRPRPRPFLGPRP	-0.552
RRIRYRPPRLPRPRPRPGKIPRP	-0.524
RRIRSRPPRLPRPRPRPTAYPRP	-0.00955
RRIRQRPPRLPRPRPRPHMVPRP	-0.0317
RRIRYRPPRLPRPRPRPGKCPRP	-0.264
RRIRGRPPRLPRPRPRPLYQPRP	0.0508
RRIRSRPPRLPRPRPRPLQIPRP	0.0322
RRIRFRPPRLPRPRPRPLQNPRP	0.0294

Sequence	shrunken log2 fold change
RRIRVRPPRLPRPRPRPVLKPRP	-0.193
RRIRRRPPRLPRPRPRPYTTPRP	-0.354
RRIRVRPPRLPRPRPRPTNGPRP	0.239
RRIRVRPPRLPRPRPRPLVEPRP	-0.125
RRIRCRPPRLPRPRPRPGHNPRP	-0.385
RRIRIRPPRLPRPRPRPEDDPRP	-0.16
RRIRSRPPRLPRPRPRPNMRPRP	0.43
RRIRNRPPRLPRPRPRPYCMPRP	-0.776
RRIRRRPPRLPRPRPRPCTTPRP	0.212
RRIRWRPPRLPRPRPRPYTIPRP	-0.606
RRIRKRPPRLPRPRPRPEGTPRP	0.0154
RRIRQRPPRLPRPRPRPRCMPRP	-0.164
RRIRNRPPRLPRPRPRPCTLPRP	-0.191
RRIRYRPPRLPRPRPRPDKAPRP	0.0133
RRIRERPPRLPRPRPRPEQCPRP	-0.0274
RRIRQRPPRLPRPRPRPVFWPRP	0.113
RRIRHRPPRLPRPRPRPARTPRP	0.19
RRIRQRPPRLPRPRPRPIKGPRP	-0.0145
RRIRYRPPRLPRPRPRPMKNPRP	-0.191
RRIRYRPPRLPRPRPRPCVWPRP	-0.0563
RRIRCRPPRLPRPRPRPHCWPRP	-0.0254
RRIRWRPPRLPRPRPRPGNTPRP	-0.348
RRIRDRPPRLPRPRPRPYHNPRP	-0.461
RRIRTRPPRLPRPRPRPMCEPRP	0.0422
RRIRSRPPRLPRPRPRPLQKPRP	0.0179

Sequence	shrunken log2 fold change
RRIRHRPPRLPRPRPRPWNIPRP	-0.246
RRIRIRPPRLPRPRPRPNMWPRP	-0.59
RRIRVRPPRLPRPRPRPMCKPRP	-0.508
RRIRQRPPRLPRPRPRPATQPRP	0.176
RRIRWRPPRLPRPRPRPWRRPRP	0.117
RRIRRRPPRLPRPRPRPHLWPRP	0.25
RRIRHRPPRLPRPRPRPRFFPRP	0.152
RRIRIRPPRLPRPRPRPIDVPRP	0.00859
RRIRVRPPRLPRPRPRPPAWPRP	0.498
RRIRIRPPRLPRPRPRPINNPRP	-0.751
RRIRNRPPRLPRPRPRPNNLPRP	-0.202
RRIRARPPRLPRPRPRPCYRPRP	-0.141
RRIRARPPRLPRPRPRPCTCPRP	-0.199
RRIRFRPPRLPRPRPRPKWAPRP	-0.075
RRIRHRPPRLPRPRPRPNMYPRP	-0.963
RRIRYRPPRLPRPRPRPEWPPRP	-0.0693
RRIRGRPPRLPRPRPRPAIIPRP	0.134
RRIRMRPPRLPRPRPRPCIPPRP	-0.159
RRIRTRPPRLPRPRPRPDDYPRP	-0.111
RRIRFRPPRLPRPRPRPCDSPRP	-0.0928
RRIRVRPPRLPRPRPRPIDAPRP	-0.206
RRIRVRPPRLPRPRPRPHMKPRP	-0.483
RRIRHRPPRLPRPRPRPPMLPRP	0.0935
RRIRHRPPRLPRPRPRPDNDPRP	0.00849
RRIRWRPPRLPRPRPRPMQVPRP	-0.0191

Sequence	shrunken log2 fold change
RRIRERPPRLPRPRPRPKKCPRP	-0.0779
RRIRPRPPRLPRPRPRPWDHPRP	-0.106
RRIRIRPPRLPRPRPRPKPAPRP	0.243
RRIRCRPPRLPRPRPRPRRGPRP	0.392
RRIRMRPPRLPRPRPRPGDMPRP	0.484
RRIRARPPRLPRPRPRPKNHPRP	-0.125
RRIRARPPRLPRPRPRPSAFPRP	0.54
RRIRSRPPRLPRPRPRPHVMPRP	-0.103
RRIRTRPPRLPRPRPRPEMVPRP	0.134
RRIRLRPPRLPRPRPRPNVPPRP	-0.213
RRIRNRPPRLPRPRPRPEMIPRP	-0.0601
RRIRERPPRLPRPRPRPPDGPRP	0.0068
RRIRPRPPRLPRPRPRPPSIPRP	-0.0949
RRIRIRPPRLPRPRPRPRACPRP	-0.148
RRIRMRPPRLPRPRPRPCAIPRP	-0.216
RRIRNRPPRLPRPRPRPKCAPRP	0.243
RRIRLRPPRLPRPRPRPHLVPRP	0.0694
RRIRWRPPRLPRPRPRPYVGPRP	-0.157
RRIRWRPPRLPRPRPRPSWSPRP	0.862
RRIRARPPRLPRPRPRPDQWPRP	0.493
RRIRVRPPRLPRPRPRPPMNPRP	-0.205
RRIRQRPPRLPRPRPRPFATPRP	0.275
RRIRFRPPRLPRPRPRPMPDPRP	-0.0671
RRIRYRPPRLPRPRPRPIEMPRP	0.0294
RRIRSRPPRLPRPRPRPHDGPRP	-0.01

Sequence	shrunken log2 fold change
RRIRKRPPRLPRPRPRPHQGPRP	0.0968
RRIRLRPPRLPRPRPRPMPIPRP	0.301
RRIRMRPPRLPRPRPRPWFDPRP	0.00362
RRIRSRPPRLPRPRPRPHVQPRP	0.132
RRIRRRPPRLPRPRPRPRHGPRP	0.197
RRIRYRPPRLPRPRPRPNQVPRP	-0.0141
RRIRDRPPRLPRPRPRPCCVPRP	-0.158
RRIRARPPRLPRPRPRPMLAPRP	0.881
RRIRCRPPRLPRPRPRPDERPRP	-0.149
RRIRMRPPRLPRPRPRPMLSPRP	0.0117
RRIRSRPPRLPRPRPRPYCYPRP	-0.0398
RRIRYRPPRLPRPRPRPQCCPRP	-0.18
RRIRQRPPRLPRPRPRPFDWPRP	-0.0369
RRIRARPPRLPRPRPRPACGPRP	0.582
RRIRDRPPRLPRPRPRPRVVPRP	0.11
RRIRLRPPRLPRPRPRPQSPPRP	-0.0515
RRIRPRPPRLPRPRPRPCQDPRP	-0.006
RRIRSRPPRLPRPRPRPEMEPRP	0.00902
RRIRCRPPRLPRPRPRPDYQPRP	-0.447
RRIRWRPPRLPRPRPRPPMRPRP	1.18
RRIRYRPPRLPRPRPRPMGPPRP	-0.121
RRIRVRPPRLPRPRPRPAKNPRP	0.153
RRIRERPPRLPRPRPRPMYNPRP	-0.301
RRIRGRPPRLPRPRPRPNGGPRP	0.0238
RRIRARPPRLPRPRPRPQFIPRP	-0.382

Sequence	shrunken log2 fold change
RRIRGRPPRLPRPRPRPLTVPRP	0.48
RRIRGRPPRLPRPRPRPCANPRP	0.0504
RRIRKRPPRLPRPRPRPSLKPRP	-0.0893
RRIRLRPPRLPRPRPRPNAQPRP	-0.0471
RRIRERPPRLPRPRPRPKEEPRP	-0.000921
RRIRNRPPRLPRPRPRPHARPRP	0.187
RRIRKRPPRLPRPRPRPCDMPRP	-0.00141
RRIRRRPPRLPRPRPRPARIPRP	0.0165
RRIRLRPPRLPRPRPRPQGEPRP	0.125
RRIRLRPPRLPRPRPRPMNIPRP	-0.504
RRIRTRPPRLPRPRPRPQLSPRP	0.212
RRIRCRPPRLPRPRPRPIKAPRP	0.0144
RRIRTRPPRLPRPRPRPFGPPRP	0.204
RRIRERPPRLPRPRPRPMEHPRP	0.0106
RRIRLRPPRLPRPRPRPTWKPRP	-0.06
RRIRLRPPRLPRPRPRPEFSPRP	-0.013
RRIRHRPPRLPRPRPRPKAHPRP	-0.145
RRIRPRPPRLPRPRPRPKEMPRP	-0.106
RRIRARPPRLPRPRPRPEAPPRP	1.11
RRIRSRPPRLPRPRPRPISHPRP	-0.421
RRIRVRPPRLPRPRPRPLIWPRP	-0.0254
RRIRKRPPRLPRPRPRPWNYPRP	-0.154
RRIRYRPPRLPRPRPRPGFGPRP	-0.0613
RRIRVRPPRLPRPRPRPTVSPRP	-0.131
RRIRERPPRLPRPRPRPACKPRP	0.104
